Data as given in article PMC6007377.

B1: G·fC 28mer (TR) (dsDNA)
DNA 1: GTGTCACCACTGCTCACGTACAGAGCTG
DNA 2: CAGCTCTGTACGTGAGCAGTGGTGACAC
modifications: 5-formylcytosine at position 17 of strand 1, paired with G
B2: G·caC 28mer (TR) (dsDNA)
DNA 1: GTGTCACCACTGCTCACGTACAGAGCTG
DNA 2: CAGCTCTGTACGTGAGCAGTGGTGACAC
modifications: 5-carboxylcytosine at position 17 of strand 1, paired with G

Molecular target: TDG N140A (human, UniProt Q13569 1-410, N140A)
Test: fluorescence anisotropy

Sequence of TDG N140A (Q13569 whole entry N140A): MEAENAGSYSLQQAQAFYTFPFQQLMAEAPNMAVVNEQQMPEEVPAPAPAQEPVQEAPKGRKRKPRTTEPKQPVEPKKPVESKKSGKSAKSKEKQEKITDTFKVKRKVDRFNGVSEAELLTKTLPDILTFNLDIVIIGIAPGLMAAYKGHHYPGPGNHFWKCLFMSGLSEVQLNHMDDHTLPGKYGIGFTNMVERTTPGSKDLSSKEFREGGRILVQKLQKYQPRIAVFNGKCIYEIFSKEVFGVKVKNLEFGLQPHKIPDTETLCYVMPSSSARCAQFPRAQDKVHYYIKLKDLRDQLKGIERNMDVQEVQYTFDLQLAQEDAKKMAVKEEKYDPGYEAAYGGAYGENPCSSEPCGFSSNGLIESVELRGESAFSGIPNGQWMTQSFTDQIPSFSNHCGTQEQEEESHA

Binder | Kd [nM]
B1 | 4 ± 0.8
B2 | 2.3 ± 0.6
